The source of these data is patent US20230257454A1 (STAIDSON BEIJING BIOPHARMACEUTICALS, published 2023).

B1: Cab22 scFv (scFv, V domains shown)
VH: VVQLVESGGGLVQPGGSLKVSCTASGFIFNDYYMQWVRQAPGKGPEWVGLIRNKANGGTTEYAASVKGRFTISRDDSKSIVYLQMSSLKTEDTAVYFCTGRLGPPGLTWGQGVLVTISS
VL: DAVMTQTPLSLPVTPGEPASISCRSSQSLLASDGYNYIDWYLQRPGQSPKVLIYGGSNRASGVPDRFSGSGSGTYFTLKISKVEAEDVGFYFCLQHRALPPTFGQGTKLEIK
B2: Cab25 scFv (scFv, V domains shown)
VH: EVQLVESGGGFVQPGGSLKVSCVASGFTFSDYYIQWVRQAPGKGPEWVGLIRNKAVGGTTTYAASVKGRFTISRDDSKSVAYLQMTSLKTEDTAVYFCVSRAGPPGLSWGQGVLVTISS
VL: DAVMTQTPLSLPVTPGEPASISCRSSQSLLASDGYNYIDWYLQRPGQSPKVLIYGGSNRASGVPDRFSGSGSGTYFTLKISKVEAEDVGFYFCLQHRALPPTFGQGTKLEIK
B3: Cab23 scFv (scFv, V domains shown)
VH: EVQLVESGGGLVQPGGSLRLSCAASGFTFSDYYIQWVRQAPGKGPEWVGLIRNKAIGGTVEYAASVKGRFTISRDDSKRIAYLQMRSLKTEDTAVYFCTGRVGPPGLTWGQGVLVTISS
VL: DAVMTQTPLSLPVTPGEPASISCRSSQSLLASDGYNYIDWYLQRPGQSPKVLIYGGSNRASGVPDRFSGSGSGTYFTLKISKVEAEDVGFYFCLQHRALPPTFGQGTKLEIK
B4: Cab26 scFv (scFv, V domains shown)
VH: EVQLVESGGGLVLPGGSLKVSCAASGFIFSDYYIQWVRQAPGKGPEWVGLIRNKAVGETVQYAASLKGRFTISRDDSKSIAYLQMTSLKTEDTAMYYCVSRAGPPGLTWGQGVLVTISS
VL: DAVMTQTPLSLPVTPGEPASISCRSSQSLLASDGYNYIDWYLQRPGQSPKVLIYGGSNRASGVPDRFSGSGSGTYFTLKISKVEAEDVGFYFCLQHRALPPTFGQGTKLEIK
B5: Cab24 scFv (scFv, V domains shown)
VH: VVQLVESGGGLVQPGGSLKVSCAASGFIFSDYYMQWVRQAPGKGPEWVGLIRKKVNGGTTEYAASVKGRFTISRDDSKSIVYLQMSSLKIEDTAVYYCVSRAGPPGLAWGQGVLVTISS
VL: DAVMTQTPLSLPVTPGEPASISCRSSQSLLASDGYNYIDWYLQRPGQSPKVLIYGGSNRASGVPDRFSGSGSGTYFTLKISKVEAEDVGFYFCLQHRALPPTFGQGTKLEIK
B6: Cab20 scFv (scFv, V domains shown)
VH: EVQLVESGGGLVQPGGSLKVSCAASGFTFRDYYMQWVRQAPGKGPEWVGLIRNKAIGETAEYAASVKGRFTISRDDSKSIVYLQMSSLKTEDTAVYYCTSRAGPPGLSWGQGVLVTVSS
VL: DIVMIQNPLSLPVTPGEPASISCRSSQSLLHSDGYTYLDWYLQKPGQSPQLLIYGGSNRASGVPDRFSGSGSGTDFTLKISKVEAEDVGVYYCMQHKVLPLTFAGGTKLEIK
B7: Cab12 scFv (scFv, V domains shown)
VH: VVQLVESGGGLVQPGGSLKVSCAASGFTFSDYYMQWVRQAPGKGPEWVGLIRNKAIGETTQYAASVKGRFTISRDDSKSIVYLQMSSLKTEDTAVYYCVSRAGPPGLSWGQGVLVTISS
VL: DIVLTQTPLSLPVTPGEPASISCRSSQRLLHSDGYTYMDWYLQKPGQSPQILIYGGSNRASGVPDRFSGSGSGTDFTLKISKVEAEDVGVYYCMQHKALPPTFGQGTKLEIK
B8: Cab10 scFv (scFv, V domains shown)
VH: QVQLVESGGGLVQPGGSLKVSCAASGFIFSDYYMQWVRQAPGKGPEWVGLIRKKVNGGTTEYAASVKGRFTISRDDSKSIVYLQMSSLKIEDTAVYYCVSRAGPPGLTWGQGVLITVSS
VL: DTVMSQIPLSLPVTPGEPASISCRSSQSLLHTDGYIYLDWYLQKPGQSPQLLIYGGSNRASGVPDRFSGSGSGTDFTLKISKVEAEDVGVYYCMQHKALPLTFGGGTKLEIK
B9: Cab09 scFv (scFv, V domains shown)
VH: EVQLVESGGGLVQPGGSLKVSCAASGFIFSDYYMQWVRQAPGKGPEWVGLIRKKVNGGTTEYAASVKGRFTISRDDSKSIAYLQMSSLKIEDTAVYYCVSRAGPPGLTWGQGVLVTISS
VL: DIVMIQTPLSLPVTPGEPASISCRSSQSLLHSDGYTYVDWYLQKPGQSPQILIYGGSNRASGVPDRFSGSGSGTDFTLKITNVEAEDVGVYYCLQHKALPPTFGQGTKLEIK
B10: Cab27 scFv (scFv, V domains shown)
VH: EVQLVQSGGGLVQPGGSLKVSCAASGFTFRDYYMQWVRQAPGKGPEWVGLIRNKAIGGTTQYAASVKGRFTISRDDSKSIVYLQMSSLKTEDTAVYYCVSRAGPPGLSWGQGVLVTVSS
VL: DAVMTQTPLSLPVTPGEPASISCRSSQSLLASDGYNYIDWYLQRPGQSPKVLIYGGSNRASGVPDRFSGSGSGTYFTLKISKVEAEDVGFYFCLQHRALPPTFGQGTKLEIK
B11: Cab16 scFv (scFv, V domains shown)
VH: EVHLVESGGGLVQPGGSLKVSCAASGFTFSDYYMQWVRQAPGKGPEWVGLIRNKAIGETTEYAASVKGRFTISRDDSKSIVYLQMSSLKPEDTAVYYCAGRLGPPGLSWGQGVLVTVSS
VL: DAVMTQIPLSLPVTPGEPASISCRSSQSLLHTDGYTYLDWYLQKPGQSPQLLIYGGSNRASGVPDRFSGSGSGTDFTLKISKVEAEDVGVYYCMQHKALPLTFGGGTRLEIK
B12: Cab06 scFv (scFv, V domains shown)
VH: EVHLVESGGGLVQPGGSLKVSCAASGFIFSDYYMQWVRQAPGKGPEWVGLIRKKVNGGTTEYAASVKGRFTISRDDSKSIVYLQMSSLKIEDTAVYYCVSRAGPPGLTWGQGVLVTISS
VL: DIVMIQNPLSLPVTPGEPASISCRSSQSLLASDGYNYMDWYLQKPGQSPKVLIYGGSNRASGVPDRFSGSGSGTDFTLKITKVEAEDVGIYYCMQHKVLPPTFGQGTKLEIK
B13: Cab11 scFv (scFv, V domains shown)
VH: EVQLVESGGGLVQPGGSLRVSCAASGFRFSDFYMQWVRQAPGKRPEWVGLIRNKPYGGTAEYAASVKGRFTISRDDSKSVTDLQMSSLKTEDTAIYYCVMRNNGYHWGQGVLVTISS
VL: DAVMTQIPLSLPVTPGEPASISCRSSQSLLHTDGYTYLDWYLQKPGQSPQLLIYGGSNRASGVPDRFSGSGSGTDFTLKISKVEAEDVGVYYCMQHKALPPTFGGGTKLEIK
B14: Cab08 scFv (scFv, V domains shown)
VH: EVQLVESGGGLIQPGGSLRVSCAASGFTFSDYYLQWVRQAPGKGPEWVGLIRTKRYGGTSEYAASVKGRYTISRDDSKAIAYLQMSSLKTEDTAVYYCVVRIFTGLHWGKGTPVTVSS
VL: DIVMTQTPLSRPVTPGEPASISCRSSQSLLHTDGYTYLDWYLQKPGQSPQLLIYGGSNRASGVPDRFSGSGSGTDFTLKISKVEAEDVGVYYCMQHKALPLTFGGGTKLEIK
B15: Cab07 scFv (scFv, V domains shown)
VH: DVQLVESGGGLVQPGGSLKVSCAASGFTFSDYYMQWVRQAPGKGPEWVGLIRNKAIGETTEYAASVKGRFTISRDDSKSIVYLQMSSLKTEDTAVYYCVSRAGPPGLSWGQGVLVTISS
VL: DTVMTQIPLSLSVTPGEPASISCRSSQRLLHTDGYTYLDWYHQKPGQSPQLLIYGGSNRASGVPDRFSGSGSVTDFTLKISKMEAEDVGVYYCMQHKALPPTFGGGTKLEIK

The target in the assay is T1, human C5a (source not stated) (human, UniProt P01031 678-751).
T1 sequence: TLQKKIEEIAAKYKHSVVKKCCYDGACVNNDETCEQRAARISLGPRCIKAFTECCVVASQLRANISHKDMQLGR
As to the kind of experiment: cell-based or functional assay.
Take B1: the ROS IC50 was 0.91 nM.

Molecule B2 had an ROS IC50 of 0.54 nM.

B3 came in with an ROS IC50 of 0.92 nM.

The molecule B4 came in with an ROS IC50 of 1.13 nM.

Turning to B5, the ROS IC50 is 1.44 nM.

In turn, B6 gave an ROS IC50 of 0.81 nM.

For B7, the ROS IC50 is 1.22 nM.

On to B8, for which the ROS IC50 came to 2.02 nM.

In turn, B9 displayed an ROS IC50 of 1.54 nM.

As for B10, the ROS IC50 was 1.21 nM.

Consider B11, for which the ROS IC50 was 0.87 nM.

The molecule B12 yielded an ROS IC50 of 1.03 nM.

As for B13, the ROS IC50 is 1.57 nM.

With B14, the ROS IC50 was determined as 1.29 nM.

Consider B15, for which the ROS IC50 came to 1.07 nM.
